Results taken from the nanobody polyreactivity screen of Harvey et al. (2022).

Assay: yeast display, Sf9 membrane polyspecificity reagent, FACS + sequencing; frameworks hold sequencing errors
Summary of the method: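 Synthetic nanobody libraries on Saccharomyces cerevisiae BJ5465 were galactose-induced for 36–48 hours, stained 1 hour at 4 °C with 10% biotinylated, detergent-solubilized Sf9 membrane reagent and enriched on streptavidin microbeads. FACS then separated cells into low and high (top ~1%) gates by anti-HA (expression) and streptavidin (reagent binding) fluorescence. Genes were colony-PCR amplified, MiSeq 2 × 250 sequenced and CDR-length filtered. A clone's polyreactivity label is that of its gate of origin.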

Sequence	polyreactivity (PSR sort gate)
QVQLVESGGGLVQAGGSLRLSCAASGRIFAKNAMGWYRQAPGKERELVAAINHSGGSTYYADSVKGRFTISRDNAKNTVYLQMNSLKPEDTAVYYCAALGSGVPRYYYWGQGTQVTVSS	high polyreactivity
QVQLVESGGGLVQAGGSLRLSCAASGSIFFGNAMGWYRQAPGKERELVAAIDGTGASTYYADSVKGRFTISRDNAKNTVYLQMNSLKPEDTAVYYCNKALTSKDYPVRTVERDYWGQGTKVTVSS	low polyreactivity
QVQLGESGGGLVQAGGSLGLSCAASGLTFIVYAMGWYRQAPGKERELVADITWSGGSTYYADSVKGRFTISRDNAKNTVYLQMNSLKPEDTAVYYCNRQSGNIMDYWGQGTQVTVSS	low polyreactivity
QVQLVESGGGLVHAGGSLRLSCAASGRTFYIYAMGWYRQAPGKERELVAAISKSGGRTYYADSVKGRITISRDNAKNTVYLQMNSLKPEDTAVYYCNKLVGDDTALYDYWGQGTQVTVSS	high polyreactivity
QVQLVESGGGLVQAGGSLRLSCAASGRIFYIYAMGWYRQEPGKERELVAAISRRAASTYYADSVKGRFTISRDNAKNTVYLQMNSLKPEDTAVYYCAADYYDRKVEYYYWGQGTQVTVSS	high polyreactivity
QVQLVESGGGLVQAGGSLRLSCAASGNTFTGYAMGWYREAPGKERELVAAITRSGRTYYADSVKGRFTISRDNAKNTVYLQMTSLKPEDTAVYYCAADRRYVKYYYSGQGTQVTVSS	high polyreactivity
QVQLVESAGGLVQAGGSLRLSCAASGNTFANYAMGWDRQAPGKERELVAAITRGGSTFYADSVKGRFTISRDNAKNTVYLQMNSLKPEDSAVYYCAKGYGTNTRYYHRYRYDYWGQGTQVTVSS	high polyreactivity
QLQLQESIGGLVQAGGSLRMSCAASGTIFHFHIMGWYRQAPGKEREFVAAISYGTSTYYADSVKGRFTISRDNAKNTVYLHMNSQKPEDTAVYYCAVYDYLEVYCWYWGQGTQVTLSS	low polyreactivity
QVQLVESGGGLVQAGGSLRLSCAAYGRIFNDYTMGWYRQAPGKERELVADITNRDTSTSYADSVKGRFIISRDNANNTVYLQMYILKPDDTAVYYCNAQQVIVVYRPGDYWGQGTQVTVSS	low polyreactivity
QVQLVESGGGLVQAGGSLRLSCAASGRIFRRNAMGWYRQAPGKEREFVAAITSSGDSTNYADSVKGRFTISRDNAKNTVYLQMNSLKPEDTAVYYCAADWARSALQGFYYWGQGTQVTVSS	low polyreactivity
QVQLVESGGGLVQAGGSLRLSCAASRNNYPYYAMGWSRQEPGKERELVAAISGSGERTYYADSVKGRFTISRDNAKNTVFLQMNSLKPEDTAVYYCAAYRRYYGWYEYWGQGTLVTVSS	high polyreactivity
QVQLVESGGGLVQAGGSLRLSCAASGSILFKNAMGWYRQAPGKERELVAAISTSGGRTYYADSVKGRFTISRDNAKNTVSLQMNSLKPEDTAVYYCAAVYPRQVSQVWRDDYWGQGTQVTVSS	high polyreactivity
QVQLVESGGGLVQAGGSLRLSCAASGRTVKPYAMGWYRQAPGKERELVAAISSGVSTHYADSVKGRFTISRDNAKNSVYLQMNSLKPEDTAVYYCDADDWVNYWFDYWGQGTQVTVSS	low polyreactivity
QVQLVESGAGLVQAGGSLRLSCAASGRILSHYAMGWYRQAPGKERELVATINSGGSTYYADSVKGRFTISRDNAKNTVYLQMNSLKPEDTAVYYCAVDYAVSYAGWVLRYDYWGQATQVTVSS	low polyreactivity
QVQLVESGGGLVQAGGSLGLSCAASGSIFEPYVMGWYRPAPGKERELVAAISESGDTTYYADSVKGRFTISRDNAKNTVYLQRNSLKPEDTAVYYCNAEDPSIDGWWRVGEYDYWGQGTQVTVSS	low polyreactivity
QVQLVESGGGIVQEGGSLRLSCAASGSTFDQNGMGGYRQAPGKERELVATISTSAGTYYADSVKGRFTISRDNAKNTVYLQMNSLKPEDTAVYYCNADLGGQYKEFDYWGQGTQVTVSS	low polyreactivity
